# US9365620B2, “Methods for treating pain” (NoNO NC., priority 2008, dated 2016)
# “Also recorded” adds a separate entry of the source. Non-standard residues stand in square brackets, D forms with d. No end group written: not given here. Tle = CC(C)(C)[C@H](N)C(=O)O; Nva = CCC[C@H](N)C(=O)O
# Target: N-type Ca channels (Homo sapiens, UniProt Q00975)
# Assay: not given
# Assay type: binding
# Conditions: peptide at 10 μM
row,Sequence,inhibition of radiolabeled ω-Conotoxin GVIA binding to N-type Ca channels [%]
1,YGRKKRRQRRRKLSSIESDV [Tat-NR2B9c] (Synthetic peptide Tat-NR2B9c) [chimeric peptide of a standard tat peptide and …],100

# Target: N-type calcium channels (Mus musculus, UniProt O55017)
# Assay: not given
# Assay type: cell-based, Swiss mice
# Conditions: not given
Sequence,Ca^2+ current shown as a percentage,inhibition of N-type calcium channel activity
"KLSSIESDV (synthetic 1991 peptide 2B9c) [Peptide 1991, peptide 2B9c, the C-terminal portion of Tat-NR2B9c]",94+/−1.7%,no significant inhibition
YGRKKRRQRRR [Peptide 1990],57+/−1.6%,
YGRKKRRQRRRALSSIESDV (synthetic 1994 peptide Tat-NR2B9c K to A) [Peptide 1994],77+/−1.8%,no significant inhibition; also recorded: some reduction in the amount of N-type calcium channel activity
FGRKKRRQRRRALSSIESDV (synthetic 1995 peptide F-Tat-NR2B9c K to A) [Peptide 1995],97+/−0.2%,
"YGRKKRRQRRRKLSSIESDX [1977] (YGRKKRRQRRRKLSSIESD[Tle]) [Peptide 1977, …X where X=L-t-butyl-glycine]",65+/−5.1%,
YGRKKRRQRRRKLSSIEADA (synthetic 1992 peptide Tat-NR2B9c-AA) [Peptide 1992],74+/−2.4%,some reduction in the amount of N-type calcium channel activity
"YGRKKRRQRRRKLSSIESDX [1976] (YGRKKRRQRRRKLSSIESD[Nva]) [Peptide 1976, …X where X=norvaline]",66+/−3.4%,
"YGRKKRRQRRRKLSSIESDV [1987] ([dY]G[dR][dK][dK][dR][dR][dQ][dR][dR][dR][dK][dL][dS][dS][dI][dE][dS][dD][dV]) [Peptide 1987, D-isomer of Tat-NR2B9c]",82+/−2.2%,some reduction in the amount of N-type calcium channel activity

# System: pain hypersensitivity after peripheral nerve injury
# Assay: Paw withdrawal threshold (von Frey) after chronic constriction injury of the sciatic nerve
# Assay type: in vivo, Sprague-Dawley rats
# Conditions: high dose, 10 mg/kg i.v., rats, 60, 90, 120 min; 10 mg/kg
# Description: In these experiments, chronic constriction injury of the sciatic nerve was induced using the polyethylene cuff method (Mosconi T, Kruger L., Pain 1996, 64: 37-57). The left sciatic nerve of adult male Sprague-Dawley rats was exposed at mid-thigh level under halothane anesthesia. A polyethylene cuff (PE90 tubing, 2 mm in length) was slit open longitudinally and implanted around the sciatic nerve, and the animals were allowed to recover for a suitable period, e.g., 10-14 days. A sterile isotonic saline solution containing dissolved Tat-NR2B9c, or a saline-only control, was injected into the tail vein, with the animal under brief halothane anesthesia. Sensitivity to pain was measured by testing the paw withdrawal threshold of animals. Paw withdrawal thresholds to mechanical stimulation were assessed using Von-Frey filaments (Stoelting Co., Wood Dale, Ill., USA). Animals were placed in plastic cages with a plastic bottom. To test the tactile threshold required to evoke withdrawal of the stimulated paw, von Frey filaments (0.008-15.18 g) were applied perpendicularly to the plantar part of the hind paw in an ascending order. Each filament was applied for 5 times, and the paw withdrawal threshold was determined when there were three positive responses out of five times a filament was applied. To avoid tissue damage, the cut off threshold was assigned as 15.18 g.
row,Sequence,reversal of pain hypersensitivity (paw withdrawal threshold)
1,YGRKKRRQRRRKLSSIESDV (Synthetic peptide Tat-NR2B9c) [chimeric peptide of a standard tat peptide and …],did not result in any apparent reversal of pain hypersensitivity; also recorded: had no effect on pain hypersensitivity; also recorded: showed no effect on pain hypersensitivity

# Same assay, conditions: low dose, 100 pmol per animal i.v., rats, day 10-14 after surgery
row,Sequence,reversal of pain hypersensitivity (paw withdrawal threshold)
1,YGRKKRRQRRRKLSSIESDV (Synthetic peptide Tat-NR2B9c) [chimeric peptide of a standard tat peptide and …],reversed pain hypersensitivity; also recorded: showed a decrease in pain hypersensitivity
